Patent US6677299B2, “Method to increase cerebral blood flow in amyloid angiopathy” (The Trustee of Columbia University in the city of New York, priority 2000, dated 2004)

Target: T1, RAGE (Mus musculus, UniProt Q62151)
T1 construct: The first set of studies employed synthetic Aβ infused in to wild-type mice; from tissue; host or cells: brain vasculature (blood-brain barrier) of living wild-type mice
Assay: Brain perfusion model: Aβ binding to brain capillaries and transport across the BBB
Assay type: in vivo, mice
Method: FIGS. 1A-1F. […] FIG. 1A and bFIG.
Brain perfusion model. […] Details of the extracorporeal perfusion circuit were as reported elsewhere. ^22,23,38,39 At the start of the perfusion, the contralateral common carotid artery was ligated, and both jugular veins severed to allow free drainage of the perfusate. Brains were perfused with oxygenated perfusion medium at a flow rate of 1 ml/min by peristalitic pump. […] Perfusion pressure and animal's own arterial blood pressure were continuously monitored. Blood gasses pO2, pCO2 and pH and electrolytes in the arterial inflow and in animal's own blood were monitored.
Injection of radioisotopes for transport studies. […] When the effects of different unlabeled molecular reagents were tested, those were injected 5 min prior to tracers injection and than simultaneously with radiolabled ligands. At predetermined times within 10 min mice were sacrificed by decapitation, and brain tissue prepared for radioactivity analysis. TCA and HPLC analysis as we described were used to determine molecular forms of uptake of radiolabeled Aβ by the BBB.^22,23 Capillary-depletion technique was used to separate micravascular pellet from capillary-depleted brain to quantify in vivo binding to microvessels vs. transport into brain parenchyma, as we reported.^22, 23
Mathematical modeling for transport studies. […] The rate of entry (KIN) is computed from eq. 1: d[CIN (TEST-MOLEUCLE)−CIN (ALBUMIN)]/dt=KINCPL−KOUT[CIN (TEST-MOLECULE)−CIN (ALBUMIN)], where KOUT is exit or efflux transfer coefficient, and R is the steady state or equilibrium ratio. Eq. 1 is integrated to give [CIN (TEST-MOLECULE)−CIN (ALBUMIN)]/CPL=R (1−e^−KOUT T) (eq. 2). R is the steady state ratio, and the ratio KIN/KOUT at infinite time, and T is infusion time. Numerical values for KOUT may be obtained from the slope of the plot of ln (R−[CIN (TEST-MOLECULE)−CIN (ALBUMIN)]/CPL) (eq. 3) against T, using the equation KOUT=−ln(R−[CIN (TEST-MOLECULE)−CIN (ALBUMIN)]/CPL)/T (eq. 4). Finally, the value for KIN is derived by substituting the number for KOUT in: KIN=R KOUT (eq. 5). When tracer uptake remains linear over studied period of time, the exist constant approaches zero, and KIN=d[CIN (TEST-MOLEUCLE)−CIN (ALBUMIN)]/dt CPL. […] Advanced graphics software and the MLAB mathematical modeling system (as above) will be used to obtain graphic plots and compute transfer coefficients.

[1] = circulating 125I-labeled peptide, mice and guinea pigs
[2] = reagent in arterial inflow, 125I-Aβ 4 nM, 10 min

T1 sequence (Q62151 23-402): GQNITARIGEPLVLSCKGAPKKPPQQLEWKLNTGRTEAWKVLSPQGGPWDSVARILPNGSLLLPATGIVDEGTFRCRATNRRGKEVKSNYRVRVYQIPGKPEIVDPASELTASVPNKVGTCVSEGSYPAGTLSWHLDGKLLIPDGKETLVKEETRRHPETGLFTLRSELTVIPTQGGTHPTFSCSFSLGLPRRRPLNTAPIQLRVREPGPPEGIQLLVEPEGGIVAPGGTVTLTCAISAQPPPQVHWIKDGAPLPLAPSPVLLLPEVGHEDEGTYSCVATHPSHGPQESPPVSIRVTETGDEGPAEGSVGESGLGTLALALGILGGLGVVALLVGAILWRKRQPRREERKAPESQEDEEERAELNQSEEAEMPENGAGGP

Substance	binding of the peptide to brain microvessels [1]	transport of the peptide across the BBB [1]	effect on Aβ transport into brain (BBB transport of Aβ) [2]	effect on binding of Aβ to brain microvessels [2]
Aβ1-42: synthetic amyloid-β peptide 1-42, human form	absence of its significant binding	somewhat slower, but significant	–	–
fucoidan	–	–	did not affect	did not affect
